Experimental data as given in patent publication US20230365659A1 (EPSILON MOLECULAR ENGINEERING, published 2023).

How the values were obtained:
[1] = biological target: SARS-CoV-2 full-length Spike Recombinant Antigen B.1.1.7 Mutation (Bio-Serv) (SARS-CoV-2, UniProt P0DTC2 14-1273); assay: ELISA, VHH on nickel plate, spike in solution (0-500 ng/mL)
[2] = biological target: T1, SARS-CoV-2 full-length Spike Recombinant Antigen B.1.617 Mutation (Bio-Serv) (SARS-CoV-2, UniProt P0DTC2 14-1273); assay: ELISA, VHH on nickel plate, spike in solution
T1 construct: Bought

[3] = biological target: T2, SARS-CoV2 spike RBD variant strain (SPD-C52Hp, Acro Biosystems, K417N, E484K, N501Y) (SARS-CoV-2, UniProt P0DTC2 319-537); assay: BLI (Octet), biotinylated RBD on SA sensor, VHH as analyte, 1:1 fit
T2 construct: domain: RBD

[4] = biological target: T3, SARS-CoV-2 spike RBD variant strain (SPD-C52Hn, Acro Biosystems, N501Y) (SARS-CoV-2, UniProt P0DTC2 319-537); assay: as above
T3 construct: domain: RBD

[5] = biological target: T4, SARS-CoV2 spike RBD variant strain (SRD-C52H3, Acro Biosystems, E484K) (SARS-CoV-2, UniProt P0DTC2 319-537); assay: as above
T4 construct: domain: RBD

[6] = biological target: SARS-CoV-2 full-length Spike Recombinant Antigen P.1 Mutation (Bio-Serv) (SARS-CoV-2, UniProt P0DTC2 14-1273); assay: ELISA, VHH on nickel plate, spike in solution (0-500 ng/mL)
[7] = biological target: SARS-CoV-2 full-length Spike Recombinant Antigen B.1.351 Mutation (Bio-Serv) (SARS-CoV-2, UniProt P0DTC2 14-1273); assay: as above
[8] = biological target: T5, SARS-CoV2 spike RBD variant (SRD-C52H2, Acro Biosystems, N440K) (SARS-CoV-2, UniProt P0DTC2 319-537); assay: BLI (Octet), biotinylated RBD on SA sensor, VHH as analyte, 1:1 fit
T5 construct: domain: RBD

[9] = biological target: T6, SARS-CoV-2 (2019-nCoV) spike RBD (L452Q, F490S) protein (His Tag) (Sino Biological, Inc.) (SARS-CoV-2, UniProt P0DTC2 319-541); assay: pull-down with VHH-immobilized beads, SDS-PAGE of the eluate
T6 construct: domain: RBD

[10] = biological target: SARS-CoV-2 (2019-nCoV) spike S1-Fc recombinant protein (Sino Biological, Inc.) (SARS-CoV-2, UniProt P0DTC2 16-685)

B1: Bacillus subtilis-derived VHH-COVE1 (VHH)
VHH: AEVQLVESGGGLVQPGGSLRLSCAASGFAFSSYPMYWVRQAPGKGLEWISFIDGEGTSTSYADSVKGRFTISRDNAKNTVYLQMNSLKPEDTAVYYCNALLRRYNYGFTFDNYWGQGTQVTVSSGGGSHHHHHH
binding result [1]: binds
binding result [2]: no binding (tested: 500 ng/mL)

B2: Bacillus subtilis-derived VHH-COVE6 (VHH)
VHH: EVQLVESGGGLVQAGGSLRLSCTASGRTWNIASMTWFRQAPGGKERTFVATIKWSDLATYYTDSVKGRFTISRGNSKNTVYLQMNSLKPEDTGVYFCYAITTGSPLLGGGMDFWGKGTLVTVSS
binding result [1]: binds
binding result [2]: no binding (tested: 500 ng/mL)

B3: Bacillus subtilis-derived VHH-COVE9 (VHH)
VHH: EVQLVESGGGLVQPGGSLRLSCAASGTIFSTNAMSWYRQAPGKQRELVAAITSGGNTNYADSVKGRFTISRDNAKNTVYLQMNSLKPEDTAVYYCNAPGVVTGSYDVRNYWGQGTQVTVSS
Kd [3]: 10.9 nM
koff [3]: 0.00159 s⁻¹
kon [3]: 146000 M⁻¹ s⁻¹
Kd [4]: 6.9 nM
koff [4]: 0.00267 s⁻¹
kon [4]: 386000 M⁻¹ s⁻¹
Kd [5]: 9.9 nM
koff [5]: 0.00307 s⁻¹
kon [5]: 310000 M⁻¹ s⁻¹
absorbance (450 nm) [1]: 0.97
absorbance (450 nm) [6]: 0.97
absorbance (450 nm) [7]: 0.97
Kd [8]: 12.5 nM
koff [8]: 0.00258 s⁻¹
kon [8]: 206000 M⁻¹ s⁻¹
binding result [2]: no binding (tested: 500 ng/mL)

B4: VHH-COVE9 (on beads in Example 26, production host not stated) (VHH)
VHH: EVQLVESGGGLVQPGGSLRLSCAASGTIFSTNAMSWYRQAPGKQRELVAAITSGGNTNYADSVKGRFTISRDNAKNTVYLQMNSLKPEDTAVYYCNAPGVVTGSYDVRNYWGQGTQVTVSS
binding result [9]: no binding (tested: 12.5 µg/mL)

B5: Bacillus subtilis-derived VHH-COVE8 (VHH)
VHH: EVQLVESGGGLVQPGGSLTLSCAASGQTFSSYNMAWFRQSPGKEREFVATISWGGGSTGYADSVKGRFTISRDHAKNTVYLQMKDLKPEDTGAYYCYLVGLFGIQASDYWGQGTQVTVSS
Kd [3]: 239 nM
koff [3]: 0.0191 s⁻¹
kon [3]: 79900 M⁻¹ s⁻¹
Kd [4]: 28.8 nM
koff [4]: 0.00159 s⁻¹
kon [4]: 55300 M⁻¹ s⁻¹
Kd [5]: 211 nM
koff [5]: 0.0147 s⁻¹
kon [5]: 69700 M⁻¹ s⁻¹
absorbance (450 nm) [1]: 0.97
absorbance (450 nm) [6]: 0.97
absorbance (450 nm) [7]: 0.97
Kd [8]: < 0.001 nM
koff [8]: < 1e-07 s⁻¹
kon [8]: 74500 M⁻¹ s⁻¹
binding result [2]: no binding (tested: 500 ng/mL)

B6: Bacillus subtilis-derived VHH-COVE7 (VHH)
VHH: EVQLVESGGGLVQAGDSLRLSCTASGRTFSSCAMGWFRQAPGKEREFVAAISRGGGSTSYADSVKGRFTISKDRARNTAYLEMNSLKPEDTAIYYCYAVFPSGGDYWGQGTQVTVSS
Kd [3]: 93.7 nM
koff [3]: 0.00398 s⁻¹
kon [3]: 42400 M⁻¹ s⁻¹
Kd [4]: 24 nM
koff [4]: 0.00186 s⁻¹
kon [4]: 73300 M⁻¹ s⁻¹
Kd [5]: 80.2 nM
koff [5]: 0.00707 s⁻¹
kon [5]: 88100 M⁻¹ s⁻¹
absorbance (450 nm) [1]: 0.97
absorbance (450 nm) [6]: 0.97
absorbance (450 nm) [7]: 0.97
Kd [8]: 24.2 nM
koff [8]: 0.00113 s⁻¹
kon [8]: 46600 M⁻¹ s⁻¹
binding result [2]: no binding (tested: 500 ng/mL)

B7: Bacillus subtilis-derived VHH-COVE5 (VHH)
VHH: EVQLVESGGGLVQAGGSLRLSCTASDQIFDNYNMAWFRQSPGKEREFVAALSWGDSNTGYADSVKGRFTISRDNAKNTVYLQMNSLKPEDTAVYYCYAVTWLRGDYWGQGTQVTVSS
Kd [3]: 306 nM
koff [3]: 0.0625 s⁻¹
kon [3]: 204000 M⁻¹ s⁻¹
Kd [4]: 11.6 nM
koff [4]: 0.00106 s⁻¹
kon [4]: 91100 M⁻¹ s⁻¹
Kd [5]: 626 nM
koff [5]: 0.0246 s⁻¹
kon [5]: 39200 M⁻¹ s⁻¹
absorbance (450 nm) [1]: 0.97
absorbance (450 nm) [6]: 0.97
absorbance (450 nm) [7]: 0.97
Kd [8]: 42.4 nM
koff [8]: 0.00178 s⁻¹
kon [8]: 42100 M⁻¹ s⁻¹
binding result [2]: no binding (tested: 500 ng/mL)

B8: Bacillus subtilis-derived VHH-COVE2 (VHH)
VHH: AEVQLVESGGGLVQAGDSLRLSCAATRRTSSTYAMGWFRQAPGKGLEWVAAISWDGGRTYYAESVKGRFTISRDNAKNTVYLQMNSLKPEDTAVYYCYSFGGSDFLMDYWGQGTQVTVSSGGGSHHHHHH
Kd [10]: 1.2 nM
koff [10]: 8.47e-05 s⁻¹
kon [10]: 70700 M⁻¹ s⁻¹
Kd [3]: 90.7 nM
koff [3]: 0.00529 s⁻¹
kon [3]: 58400 M⁻¹ s⁻¹
Kd [4]: 4.01 nM
koff [4]: 0.000438 s⁻¹
kon [4]: 109000 M⁻¹ s⁻¹
Kd [5]: 34.4 nM
koff [5]: 0.00365 s⁻¹
kon [5]: 106000 M⁻¹ s⁻¹
absorbance (450 nm) [1]: 0.97
absorbance (450 nm) [6]: 0.97
absorbance (450 nm) [7]: 0.97
Kd [8]: 2.96 nM
koff [8]: 0.000491 s⁻¹
kon [8]: 166000 M⁻¹ s⁻¹
binding result [2]: no binding (tested: 500 ng/mL)

B9: Bacillus subtilis-derived VHH-COVE4 (VHH)
VHH: AEVQLVESGGDVVQPGGSLRLSCAASGFTFTTYAMTWVRQAPGEGLEAVSTISGADGSTYYADSVKGRFTISRDNANNTVYLQMNSLKPEDTAVYYCAATPWYSASHTYWGQGTQVTVSSGGGSHHHHHH
binding result [1]: binds
binding result [2]: no binding (tested: 500 ng/mL)

B10: Bacillus subtilis-derived VHH-COVE3 (VHH)
VHH: AEVQLVESGGGFVQAGGSLRLSCRVSAPTFMTYTMAWFRQAPGNEREFVAALSKNFVTTSYADSVKGRFTISRDNAKNTVYLQMNSLKPEDTAVYYCNVAWSDYEYLEVWGQGTLVTVSSGGGSHHHHHH
Kd [10]: 0.924 nM
koff [10]: 9.75e-05 s⁻¹
kon [10]: 106000 M⁻¹ s⁻¹
Kd [3]: 265 nM
koff [3]: 0.0106 s⁻¹
kon [3]: 40000 M⁻¹ s⁻¹
absorbance (450 nm) [1]: 0.97
absorbance (450 nm) [6]: 0.97
absorbance (450 nm) [7]: 0.97
Kd [8]: 15.4 nM
koff [8]: 0.000448 s⁻¹
kon [8]: 29200 M⁻¹ s⁻¹
